Results from patent US20200370050A1 (published 2020).

How the values were obtained:
[1] = target: T1, FLAG-CRAFΔN (193-648) (human, UniProt P04049 193-648); assay: co-immunoprecipitation from M7609 cell lysate on anti-FLAG M2 magnetic beads, Western blot with anti-GSTP1
T1 construct: Expressed in M7609 cells from a pCMV6-Entry vector; also called CRAF protein with a deletion at the N-terminal moiety; not shown: FLAG tag at the C-terminus (plasmid pCMV6-Myc-DDK-CRAFΔN)
Description: (§1) The transfected cells were used for coimmunoprecipitation. The cells were lysed by incubation in 0.5% NP-40 lysis buffer (0.5% NP-40, 20 mM HEPES pH 7.4, 150 mM NaCl, 1 mM MgCl₂, 1 mM EGTA, 10% glycerol, Complete, Mini (Roche Diagnostics) and PhosSTOP (Roche Diagnostics)) on ice for 30 min. Centrifugation was performed to give a supernatant as a cell lysate. The cell lysates obtained from the samples and containing the same amount of protein were each incubated with anti-FLAG M2 magnetic beads (Sigma-Aldrich) at 4° C. for 2 h to overnight, so that each FLAG-tagged protein was attached to the beads. The beads were washed four times with 0.5% NP-40 lysis buffer.
(§2) Each sample for western blotting was prepared from the beads obtained after the coimmunoprecipitation, and then subjected to SDS-PAGE for protein separation. The separated protein was transferred to a PVDF membrane. The membrane was incubated with a primary antibody solution and then washed. The primary antibody used was an anti-GSTP1 antibody (Medical & Biological Laboratories Co., Ltd.), an anti-FLAG antibody (F3165, Sigma-Aldrich), or an anti-GAPDH antibody (Abcam plc.). The membrane was then incubated with a secondary antibody (goat secondary antibody to rabbit or mouse IgG) solution and then washed. The signal on the membrane was visualized using ECL or ECL prime Western blotting detection system (GE Healthcare). […]

[2] = target: T2, FLAG-BRAF (1-766) (Homo sapiens (Human), UniProt P15056 1-766); assay: as above
T2 construct: Expressed in M7609 cells from plasmid pCV6-Myc-DDK-BRAF (OriGene Technologies); also called full-length BRAF protein; BRAF with the extension; not shown: FLAG tag (DDK tag) at the C-terminus
Description: as §1, §2

T2 sequence (P15056 whole entry): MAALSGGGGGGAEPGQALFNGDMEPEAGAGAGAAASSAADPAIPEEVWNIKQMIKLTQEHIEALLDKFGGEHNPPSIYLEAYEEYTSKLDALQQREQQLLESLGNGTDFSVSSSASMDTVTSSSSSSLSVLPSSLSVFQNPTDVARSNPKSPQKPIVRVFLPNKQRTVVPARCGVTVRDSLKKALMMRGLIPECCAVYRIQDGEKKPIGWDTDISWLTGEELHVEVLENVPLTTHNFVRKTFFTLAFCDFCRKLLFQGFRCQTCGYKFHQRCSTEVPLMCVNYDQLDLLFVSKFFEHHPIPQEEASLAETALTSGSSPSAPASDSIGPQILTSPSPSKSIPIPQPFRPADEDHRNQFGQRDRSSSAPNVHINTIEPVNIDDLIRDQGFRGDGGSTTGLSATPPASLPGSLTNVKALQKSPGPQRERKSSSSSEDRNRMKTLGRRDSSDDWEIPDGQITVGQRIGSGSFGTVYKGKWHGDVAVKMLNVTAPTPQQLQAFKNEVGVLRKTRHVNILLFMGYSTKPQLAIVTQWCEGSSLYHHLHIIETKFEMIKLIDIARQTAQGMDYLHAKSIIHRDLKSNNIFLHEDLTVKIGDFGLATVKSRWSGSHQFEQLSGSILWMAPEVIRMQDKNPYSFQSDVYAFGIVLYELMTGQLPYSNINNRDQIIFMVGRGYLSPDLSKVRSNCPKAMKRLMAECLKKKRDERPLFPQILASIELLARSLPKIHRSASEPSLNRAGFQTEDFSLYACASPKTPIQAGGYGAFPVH

binding result [1]: no binding
binding result [2]: no binding
B1: GSTP1 (endogenous, in lysates of KRAS mutation-positive colon cancer cells) (enzyme)
chain: PPYTVVYFPVRGRCAALRMLLADQGQSWKEEVVTVETWQEGSLKASCLYGQLPKFQDGDLTLYQSNTILRHLGRTLGLYGKDQQEAALVDMVNDGVEDLRCKYISLIYTNYEAGKDDYVKALPGQLKPFETLLSQNQGGKTFIVGDQISFADYNLLDLLLIHEVLAPGCLDAFPLLSAYVGRLSARPKLKAFLASPEYVNLPINGNGKQ
notes: also called glutathione S-transferase pi; endogenous GSTP1
